Experimental data: the Human Domainome abundance scans (Beltran et al. 2025)

B1: Far upstream element-binding protein 2, residues 142 to 214; numbered along this chain, Q92945 (parent)
chain: RTSMTEEYRVPDGMVGLIIGRGGEQINKIQQDSGCKVQISPDSGGLPERSVSLTGAPESVQKAKMMLDDIVSR

Variants of: B1
Assay: abundance fitness (aPCA) (normalised: wild type 0, dead -1); higher = more abundant; growth selection in yeast, the domain comes from the species named
Conditions: Homo sapiens

Abundance fitness of substitutions, site by site:
T54: F -0.278 | A -0.255 | M -0.182 | I -0.205 | P -0.855 | L -0.256 | V -0.058 | R -0.256 | Y 0.028 | W -0.393 | D -0.424 | H -0.076 | E -0.135 | N -0.327 | G -0.586 | Q -0.158 | K -0.16 | C -0.2 | S -0.059
D42: T 0.007 | W -0.203 | Y -0.061 | V -0.125
Q61: M -0.051 | D -0.168 | F -0.106 | A 0.015 | R 0.013 | C -0.164 | N 0.016 | L -0.109 | P -0.618 | T -0.018 | S -0.06 | K 0.045 | V -0.102 | H -0.196 | E 0.01 | I -0.064 | G -0.053
S59: K -0.216 | F -0.528 | R -0.373 | G -0.149 | N -0.062 | Y -0.727 | A 0.008 | C -0.063 | W -0.968 | V -0.326 | Q -0.037 | M -0.206 | L -0.619 | H -0.081 | P -0.769 | D 0.003 | I -0.848
P57: G -0.434 | Y -0.402 | L -0.316 | I -0.289 | C -0.432 | E -0.259 | K -0.185 | F -0.357 | W -0.24 | M -0.225 | S -0.245 | V -0.192 | D -0.609 | T -0.325 | A -0.101 | H -0.213 | R -0.141
V51: C -0.189 | I 0.117 | H -1.3 | G -0.832 | P -0.847 | D -0.834 | A -0.503 | M -0.122 | E -0.84 | L 0.019 | R -0.944 | W -0.487 | T -0.704 | Q -0.947 | Y -0.5 | S -0.837 | F -0.089
E48: H -0.007 | T 0.006 | K -0.158 | F -0.109 | N -0.161 | A -0.063 | Y 0.103 | L -0.12 | R -0.12 | M -0.047 | V -0.103 | C -0.169 | I -0.157 | G -0.044 | P -0.065 | Q -0.038 | D -0.033 | S -0.024
A56: L -0.1 | F -0.315 | V -0.099 | Y -0.091 | T 0.113 | M -0.154 | G -0.114 | I -0.126 | S -0.008 | K -0.153 | Q -0.1 | W -0.281 | E -0.003 | N -0.272 | R 0.012 | H 0.026 | C 0.088 | D -0.025
S50: W -0.118 | A -0.04 | R 0.018 | Y -0.137 | D -0.289 | V -0.002 | F -0.218 | E -0.193 | P -0.159 | K 0.044 | I 0.126 | Q -0.139 | N -0.085 | G -0.071 | L -0.067 | C 0.043 | T 0.008 | M -0.125
L53: R -0.854 | N -0.634 | T -0.648 | C -0.379 | V -0.369 | I -0.09 | Y -1.04 | P -0.998 | D -0.72 | S -0.754 | A -0.817 | K -1 | H -0.733 | W -0.994 | E -0.869 | Q -0.784 | F -0.491
S52: C 0.027 | E 0 | R 0.01 | Q -0.011 | P -0.874 | I 0 | A -0.094 | D -0.312 | Y 0.097 | V 0.041 | F 0.007 | G -0.249 | H 0.043 | T 0.068 | M 0.047 | W 0.01 | N -0.177 | L 0.059
G45: Y -0.299 | H -0.011 | S -0.113 | K -0.207 | W -0.351 | L -0.193 | A -0.211 | Q -0.1 | N -0.11 | M -0.208 | R -0.164 | D -0.102 | C -0.168 | V -0.107 | E -0.064 | T -0.079 | F -0.218
L46: P -0.145 | F -0.097 | T -0.002 | A -0.056 | N -0.144 | C 0.031 | I -0.145 | S 0.004 | M -0.033 | W -0.171 | V -0.104 | Q -0.052 | G 0.07 | E -0.037 | Y -0.153 | D -0.045 | K 0.061 | H -0.117
E58: M -0.125 | H -0.071 | A -0.088 | V -0.209 | P -0.305 | D -0.035 | W -0.335 | Y -0.203 | K -0.065 | T -0.174 | R -0.198 | F -0.405 | S -0.102 | C -0.305 | G -0.124 | N -0.275 | Q -0.122
R49: A -0.021 | W -0.202 | N -0.104 | D -0.386 | Y -0.379 | M -0.127 | P -0.067 | Q -0.08 | K -0.092 | E -0.267 | H 0.025 | S -0.026 | V -0.139
P47: S -0.021 | E -0.06 | F -0.14 | Q -0.034 | A 0.02 | M -0.009 | G 0.002 | K -0.016 | C -0.014 | T -0.018 | N -0.13 | D -0.002 | L -0.094 | I -0.168 | V -0.146 | R -0.104 | Y -0.028 | W -0.32
V60: K -0.377 | G -0.745 | F -0.82 | S -0.741 | R -0.016 | W -1.26 | A -0.689 | Y -0.763 | E -0.773 | D -0.789 | Q -0.586 | L -0.191 | H -0.727 | I 0.119 | N -0.636 | M -0.265 | C -0.355
S43: T -0.012 | F -0.328 | Q -0.027 | R -0.023 | D -0.031 | W -0.212 | P -0.083 | M -0.101 | V -0.11 | H -0.113 | L -0.116 | C -0.135 | I -0.098 | Y -0.189 | N -0.046 | K -0.1 | G -0.034 | E -0.082
G44: S -0.09 | A -0.051 | H -0.083 | T -0.017 | W -0.338 | F -0.194 | D 0.02 | P -0.137 | Q 0.034 | L -0.125 | R -0.071 | Y -0.084 | M 0.007 | V -0.133 | E 0.008 | K 0.019 | C -0.105 | I -0.339
G55: C -0.818 | Q -0.875 | V -1.17 | K -0.681 | T -0.732 | F -1.41 | E -0.927 | Y -0.878 | A -0.882 | W -1.83 | D -0.83 | R -0.965 | N -0.922 | P -0.937 | H -0.887 | L -1.18 | M -1.18 | I -1.5
